B1: specific GATA competitor (dsDNA)
DNA 1: GATCTCCGGCAACTGATAAGGATTCCCTG
DNA 2: CAGGGAATCCTTATCAGTTGCCGGAGATC
B2: non-specific competitor (dsDNA)
DNA 1: GATCGAACTGACCGCCCGCGGCCCGT
DNA 2: ACGGGCCGCGGGCGGTCAGTTCGATC

Tests used:
[1] = biological target: T1, GATA-2 (UniProt O09100 O09100:1-480); assay: competition; 1 ug competitor competed complex; settings: tags: GST fusion (pGEX-2T)
Experimental: (§1) FIG. 5B is a photograph of an electrophoretic gel showing the results of an mobility shift assay. Based on the result of Dnase I footprinting, two double stranded DNA fragment (nucleotide −199 to −85 and nucleotide −22 to +9, respectively) were end-labeled with 32P and electrophoretic mobility shift assays were performed with GST-GATA-2 or GST-GATA-3. For each protein-DNA reaction, specific (S) or non-specific (N) DNA competitors were also included in the experiments.
(§2) After confirming the requirement for GATA DNA-binding activity, experiments were carried out to determine whether this activity requires direct interaction with the PPAR-gamma 2 promoter. The proximal PPAR-gamma 2 promoter region was evaluated by deletion analysis. […] To determine if and at what sites GATA factors directly interact with DNA on this fragment, DNase I footprinting experiments were carried out (FIG. 5A) combined with elecrophoretic mobility shift assays (FIG. 5B) using recombinant GATA-2 and GATA-3 fusion proteins. The electrophoretic mobility shift assays were performed in 20 ul reaction volume. 2 ul GST-GATA fusion protein was incubated with 0.5 ug poly[d(I-C)] and ³²p labeled DNA probe (4×10⁴ cpm) in the presence or absence of 1 ug of specific or non-specific competitors, at room temperature for 20 min. […]

[2] = biological target: T2, GATA-3 (UniProt P23772 P23772:1-443); assay: competition; 1 ug competitor competed complex; settings: tags: GST fusion
T2 sequence (P23772 whole entry, the tested form may be a part, one chain of several): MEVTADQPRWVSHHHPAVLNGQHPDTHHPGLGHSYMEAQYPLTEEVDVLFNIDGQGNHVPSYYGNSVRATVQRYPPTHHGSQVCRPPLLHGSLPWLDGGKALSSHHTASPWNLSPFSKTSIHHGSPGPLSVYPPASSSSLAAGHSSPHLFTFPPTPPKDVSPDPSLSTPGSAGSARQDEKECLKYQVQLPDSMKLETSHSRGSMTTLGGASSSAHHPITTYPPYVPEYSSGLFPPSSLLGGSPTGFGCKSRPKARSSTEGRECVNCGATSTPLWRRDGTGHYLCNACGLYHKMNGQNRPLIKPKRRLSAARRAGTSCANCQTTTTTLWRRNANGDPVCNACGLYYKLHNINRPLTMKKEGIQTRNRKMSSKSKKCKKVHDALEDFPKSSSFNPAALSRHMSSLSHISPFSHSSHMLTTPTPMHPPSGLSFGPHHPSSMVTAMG
Experimental: as §1, §2

[3] = biological target: T1, GATA-2; assay: competition; 1 ug, no competition; settings: tags: GST fusion (pGEX-2T)
Experimental: as §1, §2

[4] = biological target: T2, GATA-3; assay: competition; 1 ug, no competition; settings: tags: GST fusion
Experimental: as §1, §2

T1 sequence (O09100 whole entry, the tested form may be a part, one chain of several): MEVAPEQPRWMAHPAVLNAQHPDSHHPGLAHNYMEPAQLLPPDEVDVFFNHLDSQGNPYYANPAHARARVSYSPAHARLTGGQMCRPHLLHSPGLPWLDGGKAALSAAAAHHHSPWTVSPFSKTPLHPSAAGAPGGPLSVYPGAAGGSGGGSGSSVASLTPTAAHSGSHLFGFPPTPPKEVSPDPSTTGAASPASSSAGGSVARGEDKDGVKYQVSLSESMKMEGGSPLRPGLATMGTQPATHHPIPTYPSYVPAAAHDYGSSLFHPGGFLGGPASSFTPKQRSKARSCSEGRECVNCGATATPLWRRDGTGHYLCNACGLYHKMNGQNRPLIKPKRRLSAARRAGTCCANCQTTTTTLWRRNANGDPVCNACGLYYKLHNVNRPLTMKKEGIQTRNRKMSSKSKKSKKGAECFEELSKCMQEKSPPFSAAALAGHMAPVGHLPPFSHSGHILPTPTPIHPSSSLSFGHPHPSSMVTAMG

Binder	binding result [1]	binding result [2]	binding result [3]	binding result [4]
B1	binds	binds	–	–
B2	–	–	no binding	no binding

— patent publication US20010046966, “Inhibition of adipogenesis” (published 2001)
